According to patent publication US20210238276A1 (INTEGRAL MOLECULAR, published 2021):

How the values were obtained:
Assay in all cases: flow cytometry, alanine-scan library in HEK-293T
hsGLUT4 R265A = target: T1, hsGLUT4 R265A (human, UniProt P14672 1-509)
T1 sequence: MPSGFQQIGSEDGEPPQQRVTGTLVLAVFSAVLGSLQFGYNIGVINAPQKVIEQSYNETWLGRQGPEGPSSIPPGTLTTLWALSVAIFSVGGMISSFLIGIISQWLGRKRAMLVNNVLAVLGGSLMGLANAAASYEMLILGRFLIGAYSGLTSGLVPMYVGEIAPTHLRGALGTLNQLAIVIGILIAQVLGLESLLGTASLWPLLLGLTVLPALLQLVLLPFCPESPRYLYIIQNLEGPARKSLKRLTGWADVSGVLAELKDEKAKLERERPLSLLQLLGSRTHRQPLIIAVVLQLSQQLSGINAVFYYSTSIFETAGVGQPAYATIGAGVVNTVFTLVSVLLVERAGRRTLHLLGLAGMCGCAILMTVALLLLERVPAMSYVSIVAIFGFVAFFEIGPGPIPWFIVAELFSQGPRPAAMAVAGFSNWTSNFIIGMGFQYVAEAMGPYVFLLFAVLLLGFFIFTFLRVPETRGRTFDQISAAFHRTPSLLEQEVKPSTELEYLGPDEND
Procedure, shortened: (§1)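 HEK-293T cells expressing individual GLUT4 alanine mutants were stained 48 h post-transfection with anti-GLUT4 scFv MAbs (2 μg/ml), then biotinylated secondary and streptavidin-PerCP, and read by high-throughput flow cytometry. Where used, cytochalasin B (10 uM final) was given for 30 min before and during primary antibody staining.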

hsGLUT4 S310A = target: T2, hsGLUT4 S310A (human, UniProt P14672 1-509)
T2 sequence: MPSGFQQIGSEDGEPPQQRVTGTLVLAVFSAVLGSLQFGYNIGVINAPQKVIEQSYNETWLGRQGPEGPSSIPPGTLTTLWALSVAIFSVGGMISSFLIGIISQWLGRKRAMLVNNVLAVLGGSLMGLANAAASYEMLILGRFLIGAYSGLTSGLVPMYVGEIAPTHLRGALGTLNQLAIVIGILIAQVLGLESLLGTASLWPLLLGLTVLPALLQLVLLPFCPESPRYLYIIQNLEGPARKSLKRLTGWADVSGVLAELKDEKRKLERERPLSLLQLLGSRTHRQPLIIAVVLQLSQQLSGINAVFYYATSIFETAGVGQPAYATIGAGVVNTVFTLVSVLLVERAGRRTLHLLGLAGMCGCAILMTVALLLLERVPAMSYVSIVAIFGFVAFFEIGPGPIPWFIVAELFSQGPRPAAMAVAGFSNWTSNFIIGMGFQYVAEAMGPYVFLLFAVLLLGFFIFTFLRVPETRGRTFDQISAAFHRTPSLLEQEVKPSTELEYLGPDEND
Procedure, shortened: as §1

hsGLUT4 G446A = target: T3, hsGLUT4 G446A (human, UniProt P14672 1-509)
T3 sequence: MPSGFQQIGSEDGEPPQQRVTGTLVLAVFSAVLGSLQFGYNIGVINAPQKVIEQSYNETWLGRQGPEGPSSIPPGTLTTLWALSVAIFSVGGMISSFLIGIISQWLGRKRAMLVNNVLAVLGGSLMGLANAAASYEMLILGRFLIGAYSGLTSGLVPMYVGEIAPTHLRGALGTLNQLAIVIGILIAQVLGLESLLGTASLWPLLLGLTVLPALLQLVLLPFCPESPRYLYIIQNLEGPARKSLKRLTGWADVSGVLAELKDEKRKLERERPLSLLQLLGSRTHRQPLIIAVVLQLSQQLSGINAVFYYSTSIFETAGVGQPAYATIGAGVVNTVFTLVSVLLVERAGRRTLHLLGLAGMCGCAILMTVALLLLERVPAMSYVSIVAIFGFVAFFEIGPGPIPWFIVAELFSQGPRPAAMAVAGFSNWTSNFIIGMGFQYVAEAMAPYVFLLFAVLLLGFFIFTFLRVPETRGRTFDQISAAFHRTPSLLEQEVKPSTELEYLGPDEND
Procedure, shortened: as §1

hsGLUT4 N508A = target: T4, hsGLUT4 N508A (human, UniProt P14672 1-509)
T4 sequence: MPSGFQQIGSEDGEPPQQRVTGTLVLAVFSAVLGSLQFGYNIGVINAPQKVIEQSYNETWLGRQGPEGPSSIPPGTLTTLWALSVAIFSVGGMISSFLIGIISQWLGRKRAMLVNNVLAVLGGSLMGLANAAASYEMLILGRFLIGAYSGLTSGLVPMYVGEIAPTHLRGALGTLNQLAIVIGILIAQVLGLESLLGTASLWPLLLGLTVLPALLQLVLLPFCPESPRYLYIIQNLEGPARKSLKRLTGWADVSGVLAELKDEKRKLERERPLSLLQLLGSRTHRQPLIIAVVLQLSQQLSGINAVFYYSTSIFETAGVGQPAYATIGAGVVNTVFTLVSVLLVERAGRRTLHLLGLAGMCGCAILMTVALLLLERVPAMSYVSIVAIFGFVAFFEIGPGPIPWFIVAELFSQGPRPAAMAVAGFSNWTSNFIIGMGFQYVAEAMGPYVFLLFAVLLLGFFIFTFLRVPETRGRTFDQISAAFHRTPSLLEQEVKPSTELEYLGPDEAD
Procedure, shortened: as §1

1F8 (antibody)
% of binding to wild type GLUT4 (hsGLUT4 R265A): 101% | % of binding to wild type GLUT4 (hsGLUT4 S310A): 93% | % of binding to wild type GLUT4 (hsGLUT4 G446A): 108% | % of binding to wild type GLUT4 (hsGLUT4 N508A): 21%

B1: AB101 (scFv)
scFv: ALTQPSSVSANPGETVKITCSGSSNSYGWYQQKSPGSAPVTVIYYNDKRPSDIPSRFSGSKSDSTHTLTITGVRAEDEAVYFCGSYDSTYVGIFGAGTTLTVLGQSSRSSGGGGSSGGGGSAVTLDESGGGLQTPGGTLSLVCKASGFTFSSNAMGWVRQAPGKGLEWVAGISSDGRYTKYGSAVKGRATISRDNGQSTVRLQLNNLRAEDTGTYFCAKAFGNNYRRIYAGQIDAWGHGTEVIVSS
notes: Chicken-derived clone used as a control; the four lead clones were tested as scFv-human IgG1 Fc; also called MAb AB101
% of binding to wild type GLUT4 (hsGLUT4 R265A): 91% | % of binding to wild type GLUT4 (hsGLUT4 S310A): 101% | % of binding to wild type GLUT4 (hsGLUT4 G446A): 95% | % of binding to wild type GLUT4 (hsGLUT4 N508A): 7%

B2: AB108 (Fc fusion)
scFv: ALTQPSSVSANLGGTVKITCSGSSGSYGWYQQKAPGSAPVTLIYRNDKRPSDIPSRFSGSESGSTGTLTITGVQAEDEAVYFCGGYDSSAGYAAFGAGTTLTVLGQSSRSSGGGGSSGGGGSAVTLDESGGGLQTPGGALSLVCKASGFTFSSHGMGWVRQAPGKGLEWVGSISTGRYTFYAPAVKGRATISRDNGQSTLRLQLNNLRAEDTGTYYCTKCAGLNGCGGGEIDAWGHGTEVIVSS
notes: Bivalent scFv-Fc; also called MAb AB108; not shown: Fc fragment of human IgG1, cloned in frame with the scFv
% of binding to wild type GLUT4 (hsGLUT4 R265A): 111% | % of binding to wild type GLUT4 (hsGLUT4 S310A): 97% | % of binding to wild type GLUT4 (hsGLUT4 G446A): 86% | % of binding to wild type GLUT4 (hsGLUT4 N508A): 89%

B3: AB111 (Fc fusion)
scFv: ALTQPSSVSANPGETVKITCSGSGSWYGWFQQKSPGSAPVTVIYSNDKRPSDIPSRFSGSKSGSTSTLTITGVQVEDEAVYYCGNWDIFGAGTTLTVLGQSSRSSGGGGSSGGGGSAVTLDESGGGLQTPGGALSLVCKASGFTFSSHGMGWVRQAPGKGLEWVASISTGRYTFYAPAVKGRATISRDNGQSTVRLQLNNLRAEDTATYYCTKCAGLNGCGGGEIDAWGHGTEVIVSS
notes: Bivalent scFv-Fc; also called MAb AB111; not shown: Fc fragment of human IgG1, cloned in frame with the scFv
% of binding to wild type GLUT4 (hsGLUT4 R265A): 143% | % of binding to wild type GLUT4 (hsGLUT4 S310A): 130% | % of binding to wild type GLUT4 (hsGLUT4 G446A): 71% | % of binding to wild type GLUT4 (hsGLUT4 N508A): 193%
